# Assay: soluble on expression in E. coli; label from the status in PepcDB or PDB records
row,Sequence,soluble on expression in E. coli
1,MTFAWGRGSHGGAGMRIVQITDTHFSPTKAHFNGNWAPLAAWIEQSGADLVIHTGDLSVDGADRDDDIAFCMDLMREISAPMLLVPGNHDVGHLPGSLQPVNAGRLERWRRLVGPDYWMEDAGSWRLIGLDSLLMGFDDAEEEAQFDWLRTVLESRGGRRVALFAHKPLFVDAPGEGDTGYWSVRPAQRQRLYDLIATHDVALFASGHLHRAWQGKYENTSLVWGPSAAFVVGDMERDMPGERLLGAVIHQFSDTVTSEIVAIPGMTAYVLDDVVAEVYPHEAHKARKRVASLEHHHHHH,not soluble
2,MSDLMQKENIVVMLTKKGFLKRLSQNEYKLQGTGGKGLSSFDLNDGDEIVIALCVNTHDYLFMISNEGKLYLINAYEIKDSSRASKGQNISELINLGDQEEILTIKNSKDLTDDAYLLLTTASGKIARFESTDFKAVKSRGVIVIKLNDKDFVTSAEIVFKDEKVICLSKKGSAFIFNSRDVRLTNRGTQGVCGMKLKEGDLFVKVLSVKENPYLLIVSENGYGKRLNMSKISELKRGATGYTSYKKSDKKAGSVVDAIAVSEDDEILLVSKRSKALRTVAGKVSEQGKDARGIQVLFLDNDSLVSVSKFIK,soluble
3,GPPTRRSDFRVLVSGLPPSGSWQDLKDHMREAGDVCYADVQKDGMGMVEYLRKEDMEYALRKLDDTKFRSHEGETSYIRVYPERS,soluble
4,SLSANLVGITGIARRLVQDGSIEEATARTAQNQAMAAKVPLPQWLIDKKLVSAAKLAAANALEFGMPLLDVSAFDHNHNAMNLVDEELLQKHRVLPLFKRGNRLFVGISNPTQTQALDDIKFHTNLVVEPILVDEDQIRRTLEQWQSRKG,soluble
5,SLDMQHRIRQLFQASIETKQQALEVLPPYIEQASLVMVNALLNEGKILSCGNGGSAGDAQHFSSELLNRFERERPSLPAVALTTDSSTITSIANDYSYNEVFSKQIRALGQPGDVLLAISTSGNSANVIQAIQAAHDREMLVVALTGRDGGGMASLLLPEDVEIRVPSKITARIQEVHLLAIHCLCDLIDRQLFGSEEEG,soluble
6,MGSDKIHHHHHHMENYKERKLIAIDLDGTTLQSDGRSISRYTKYIFKQVESLGHIICITTGRPFRMSLDVYRELELTSPVINFNGALISMPNDKNWEHTKSYYIDRSFIFDLLRHQQNFNLHFFAVEYRRKFFLNTFRNVEPKLFGVEKFQPYNRLRADRVTENPHAVLLSTRQKDKLALAEEMKRHYNGKIDVGVWGGPNGILEVVPKGISKASGLNHLLKVLDIPLENLIAFGDEHNDIEMFKLAPNAYAMKNASARLTPYASEILPWTNDEDGVARQLEKLFLTPNK,not soluble
7,ESYAIFSLNAQFDALTINKARKLYRGKTRLLQGQRIELSDWPETSVERTEFYRYLLNKNLAQMNAHWASLSFSGKARPPKVIDQPSIEILLAWMREQPNRIGYAPVDSLPSDAHVLYVV,not soluble
8,MNLLFQSYLDNVGVQIVRQMRSGERFLKIWSQTVEEIVSYVTVNF,soluble
9,MKYKKLLFDLIDYLDAFESLHDGGSHEPEIKDFADFLSWRCGKKKKQEEEVVSVTRERAAGAKNIARGVSLLHRYSRFYIKKALTESPLQTEDEYTYLVSLMNGESMTKTELNNLNAMEKTSGAEVMRRLLKANLIEQRPDEEDRRSMRVSITPEGRKVLVNLFPNLRLCAETLVSALSDEQLTAFDHLLWLLCECHNEMFTGKHDAELTDLHAETCGLKQSAGGALSKRLYRR,not soluble
10,MGSDKIHHHHHHMDSIQESDVLNAVKTKLPPCCLRIFRNKIILVGTYDLDKSTGYRSGSLDVFTMDLKLLCSNNTYGAILDLKLSPFDDTLICTAHSTGNIMLWRIRCTDKDDFQSNELDIHAIANLQLFEKDVLIASCHFSPLDCKKLLVTNTAGEAATIDIRTLSVQFTASAIAQAYSKLDKIDYEVQGATEKVIHVESGQFLKPHELECWTAEFGSLQPFQDVVFTGGDDSRIMAHDLRSKEFIWSNNRIHDAGVVSIKCSQPNFRNNKPTSIITGSYDDNIRSLDLRMMGESIFPGANVPTVNKLACDLGGGVWRFVESPIDQEQSHHNGSDRLLVCCMYNGAKVVTMNDNSDEYFQIQHYLKKGHDSMCYGGDWSNSLIATCSFYDNSLQTWIV,not soluble
11,GPGSMERIPLVVRRMVAAEQSCGFVHFFASLADASATPLVIEAKAFSSAAAGGAADDAAPTYQLVYDVMRSRNGHILFKKSYAERFTHSLALAAPVHALPAQLRSLVQSRLQAYIESPGVYLDGATERNVKLLSWIPATAASTTQEEAFPIPGIVMLVKSSYPSESMYREGAKLGLLFNAHRTNPNAKVAQMGLRDRANAYLAENDVYEVLLVHDAADAYLVPEGSRSNYLLQKSDGTWWCSAEEDILVGITLKTTYRVVQACGLGSVQHAKLTLKDILESKSLFILGTSPTIMPVQSVLLYRDTETRRLYEEAVRGLGTTAGTVQQVSDDKAELLFPVNVELAAALRAQYFAEAASS,not soluble
12,MSLSLALQYFKALSDETRLRLIHVLNRHELSVNELVSILEMGQSRVSRHLKILTGAGLLTSRRDGLWVFYSAAAEGDGRAFLDAVTPFVTTDMVLQADLDMAQKIIEERALKTRQFFNAIAEDWDELNREVLGGFDLAGAVAEAMPQCETAVDLGCGTGSVIERMLQRSQQVIGVDGSPRMLELARRRFVEGAERVSLRIGELDHLPLRDGEADFASINMVLHHLSDPGVALGEIRRVLRLGGQLMVTDFDRHDNERMRSDYGDRWLGFEGVQLEGLLREAGFTVRECRRQGVAKGLALHLMLAEKTQEGHHHHHH,soluble
13,GPGSMRGIARPTVATVGLSQQVVAFDEWVWALNELGGRESFRKNWRYYALRIDTVHFLMFVLDVLNGQALDEARQYLKEVTSHYHEVPLLVVFNNFREGHRRFDISEFEALIHLDKLRRRHGADVLSCVCDISVVHSKNRQLPRTLSSTLRTLSSLLKARSKSENGGDGGAPPVPKATTSFSASVVGGAAGDAAAGDGVVHS,not soluble
14,MTGRIVHFEIPFDDGDRARAFYRDAFGWAIAEIPDMDYSMVTTGPVGESGMPDEPGYINGGMMQRGEVTTPVVTVDVESIESALERIESLGGKTVTGRTPVGNMGFAAYFTDSEGNVVGLWETAR,soluble
15,MGSDKIHHHHHHMTDISWEMNDQTIVRKTDKIARQDTLPDLTLKKVKQGDRMRFDAHVNVDSMAEGQHLKRVTIFSNVPGGGTWELISDEGVAVGGRGTAPSPQMYFAAGLGLCLMSHVEMLAKSGEFEITSARLEQRSTWTTTMDLGAVAPANIYGKGEHMQMNLIIESPEPTPKIAEFIAYCRQACMALQTVAAATPVATGLYLNGAHIGDVGGTGPFAKVA,not soluble
16,HLKFQSVFDIIGPVMIGPSSSHTAGAVRIGKVVHSIFGEPSEVTFHLYNSFAKTYQGHGTDKALVAGILGMDTDNPDIKNSLEIAHQKGIKIYWDILKDSNSPHPNTAKITVKNGDRSMSITGVSIGGGNIQVTELNG,not soluble
17,QEGTLERSDWRKFFSEFQAKGTIVVADERQADRAMLVFDPVRSKKRYSPASTFKIPHTLFALDAGAVRDEFQIFRWDGVNRGFAGHNQDQDLRSAMRNSTVWVYELFAKEIGDDKARRYLKKIDYGNADPSTSNGDYWIEGSLAISAQEQIAFLRKLYRNELPFRVEHQRLVKDLMIVEAGRNWILRAKTGWEGRMGWWVGWVEWPTGSVFFALNIDTPNRMDDLFKREAIVRAILRSIEALPPNPAVNSDAAR,soluble
18,MGQLIDGVWHDTWYDTKSTGGKFQRSASAFRNWLTADGAPGPTGTGGFIAEKDRYHLYVSLACPWAHRTLIMRKLKGLEPFISVSVVNPLMLENGWTFDDSFPGATGDTLYQNEFLYQLYLHADPHYSGRVTVPVLWDKKNHTIVSNESAEIIRMFNTAFDALGAKAGDYYPPALQTKIDELNGWIYDTVNNGVYKAGFATSQEAYDEAVAKVFESLARLEQILGQHRYLTGNQLTEADIRLWTTLVRFDPVYVTHFKCDKHRISDYLNLYGFLRDIYQMPGIAETVNFDHIRNHYFRSHKTINPTGIISIGPWQDLDEPHGRDVRFGLEHHHHHH,soluble
19,MSLGYLNNVTGYREDLLANRAIVKHGNFALLTPDGLVKNIIPGFENCDATILSTPKLGASFVDYLVTLHQNGGNQQGFGGEGIETFLYVISGNITAKAEGKTFALSEGGYLYCPPGSLMTFVNAQAEDSQIFLYKRCYVPVEGYAPWLVSGNASELERIHYEGMDDVILLDFLPKELGFDMNMHILSFAPGASHGYIETHVQEHGAYILSGQGVYNLDNNWIPVKKGDYIFMGAYSLQAGYGVGRGEAFSYIYSKDCNRDVEIEGGSHHHHHH,soluble
20,MAANKPKGQNSLALHKVIMVGSGGVGKSALTLQFMYDEFVEDYEPTKADSYRKKVVLDGEEVQIDILDTAGQEDYAAIRDNYFRSGEGFLCVFSITEMESFAATADFREQILRVKEDENVPFLLVGNKSDLEDKRQVSVEEAKNRAEQWNVNYVETSAKTRANVDKVFFDLMREIRARKMEDSKEKNGKKKRKSLAKRIRERCCIL,soluble
21,MTRTSKWTVHEAKSNPKYFTHNGNFGESPNHVKRGGYGKGNWGKPGDEINDLIDSGEIKTVFNKTRRGSNSQNNERRLSDLQQYHI,soluble
22,MSTNEIYNREEVLLLIEKLLGNNIEIPILLMLLLGLRMGEATGLRWSDVDLDNNLINVNQILVYSNGKISFKEPKTPKSKRALSAPKELIEKLKIEKLRQSKLKLQGILENKNNLVCLNTNLNPFLPSSLRKTFHNFTKKNNLKKIRIHDLRHTSATLLLLGGTNMKVVSERLGHTDIKITMNRYSHVLKEMDKEASDNLSELLEHHHHHH,not soluble
23,MKHSLPDLPYDYADLEPVISHEIMQLHHQKHHATYVNNLNQIEEKLHEAVSKGNVKEAIALQPALKFNGGGHINHSIFWTNLAKDGGEPSAELLTAIKSDFGSLDNLQKQLSASTVAVQGSGWGWLGYCPKGKILKVATCANQDPLEATTGLVPLFGIDVWEHAYYLQYKNVRPDYVNAIWKIANWKNVSERFAKAQQ,soluble
24,HNNLLSQLGSSHNSITYDIIFGNKDTKNYYAQFAKKHQTHLYSQISSSNQQELKYVDNDPNLKIKEEAAKSTVQNLTVYS,soluble
25,MNYEIKQEEKRTVAGFHLVGPWEQTVKKGFEQLMMWVDSKNIVPKEWVAVYYDNPDETPAEKLRCDTVVTVPGYFTLPENSEGVILTEITGGQYAVAVARVVGDDFAKPWYQFFNSLLQDSAYEMLPKPCFEVYLNNGAEDGYWDIEMYVAVQPKHH,soluble
26,MGSDKIHHHHHHMEDTQSVLQEYGLTAQFIEPVSPLVWKVYTDYGIFALKKLKEGRGKHFTDHMVAIEEKGFRSFVPVYRTNSGEFFSAGIQYGDIYYLMPWLQFDQEEERDQKHAYLFRETARLHERTAQELKVRRDEIERYYGQTKKKWEQDKIFYEQFVDRAEKEWYLSPFELQAITYFSETISAVNFALERLEDWYESAKEKDVSRVVMNHGSLSIHHFLYNDAGTGYFTNFERASVGPPQNDLLGFYTKMFRGFPKACPECVEWFYGYTKSFPLREAEVSLFLSYMAYPAAMYKVLNGYQTGKRQHEKEECTQLLKAYWQMKNIEPFVMKIHQIEQEKKFQAENESTS,not soluble
27,MGSDKIHHHHHHMHFLEKYRFLVIGHRGLPSLCLENTVESFNATFNAGMPAVELDVQYTADGVPVVFHDFDLNRLAGRNSRIGDLKWDDLSKIRLASGSTIPRLSDVLSAFENFNFFIEIKIEKFDNAERKLTDDVARMVIDRSMNDNVVMISFNASAMRYVRDHYDGIITGLDFESPDEADDAVNNNVALPYYAIIDEVFDKIKERPVIPWTVDSYSTAVRLKEMGCRGIITNTGDRFISLIE,not soluble
